The record followed here is US10005846 (LIFEARC, dated 2018).

One may read the Kd as the free concentration of one partner at which half of the binding sites on the other are occupied at equilibrium, for simple one-to-one binding. The low end stands for a tighter complex, the high end for a looser complex. What is called koff is the rate constant with which the complex falls apart. High values mean a short-lived complex, low ones a long-lived complex. As usually defined, the kon is the rate constant with which the complex forms. Lower therefore signals slow association.

The chains are these.
T1: human transglutaminase type 2 (TG2) (human, UniProt P21980 1-687)
T1 construct: Recombinant full-length human TG2 (Zedira; cat; T002 in the Biacore work); Also used here for the endogenous TG2 of HepG2 lysate and HK-2 cells; also called hTG2; rhTG2
T1 sequence: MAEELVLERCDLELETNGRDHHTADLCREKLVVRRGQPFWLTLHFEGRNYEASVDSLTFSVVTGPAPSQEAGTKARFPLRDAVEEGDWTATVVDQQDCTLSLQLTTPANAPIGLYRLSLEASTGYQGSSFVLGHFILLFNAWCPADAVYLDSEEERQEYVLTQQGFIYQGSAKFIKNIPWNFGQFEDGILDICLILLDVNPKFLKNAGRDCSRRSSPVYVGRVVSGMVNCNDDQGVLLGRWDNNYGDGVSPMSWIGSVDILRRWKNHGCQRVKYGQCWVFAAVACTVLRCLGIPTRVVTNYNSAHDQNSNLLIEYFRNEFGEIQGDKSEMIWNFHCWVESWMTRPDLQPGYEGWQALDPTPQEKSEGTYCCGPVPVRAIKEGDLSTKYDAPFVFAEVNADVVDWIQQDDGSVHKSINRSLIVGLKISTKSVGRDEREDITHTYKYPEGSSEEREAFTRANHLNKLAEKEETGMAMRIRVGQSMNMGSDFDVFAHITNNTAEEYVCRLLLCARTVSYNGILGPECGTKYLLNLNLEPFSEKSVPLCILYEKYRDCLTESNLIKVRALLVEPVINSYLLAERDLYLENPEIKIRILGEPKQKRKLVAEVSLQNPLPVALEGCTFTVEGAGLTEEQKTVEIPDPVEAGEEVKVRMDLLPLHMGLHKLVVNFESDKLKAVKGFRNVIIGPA

T2: rat TG2 (rat, UniProt Q9WVJ6 1-686, limits assumed)
T2 sequence: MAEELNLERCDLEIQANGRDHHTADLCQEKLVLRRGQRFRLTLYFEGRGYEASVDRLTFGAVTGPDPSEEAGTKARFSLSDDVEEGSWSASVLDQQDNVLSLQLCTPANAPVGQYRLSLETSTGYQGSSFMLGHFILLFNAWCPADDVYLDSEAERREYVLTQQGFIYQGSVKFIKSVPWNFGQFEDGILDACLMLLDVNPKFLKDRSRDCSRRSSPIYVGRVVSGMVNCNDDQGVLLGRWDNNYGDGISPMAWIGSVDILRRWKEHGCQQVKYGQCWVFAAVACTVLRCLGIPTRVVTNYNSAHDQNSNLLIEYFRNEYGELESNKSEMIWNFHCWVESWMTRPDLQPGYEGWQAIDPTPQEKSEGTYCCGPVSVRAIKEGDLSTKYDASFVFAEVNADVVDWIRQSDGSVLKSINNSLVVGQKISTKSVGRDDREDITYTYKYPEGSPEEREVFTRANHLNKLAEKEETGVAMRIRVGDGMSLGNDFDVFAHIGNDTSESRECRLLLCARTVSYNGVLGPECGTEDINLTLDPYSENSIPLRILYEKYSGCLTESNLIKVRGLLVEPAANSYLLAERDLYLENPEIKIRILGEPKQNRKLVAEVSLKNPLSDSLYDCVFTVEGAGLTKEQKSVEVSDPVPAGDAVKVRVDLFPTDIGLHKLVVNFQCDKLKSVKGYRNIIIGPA

B1: cDH001 chimeric antibody (murine DH2 variable regions) (antibody, human IgG1, V domains shown)
VH: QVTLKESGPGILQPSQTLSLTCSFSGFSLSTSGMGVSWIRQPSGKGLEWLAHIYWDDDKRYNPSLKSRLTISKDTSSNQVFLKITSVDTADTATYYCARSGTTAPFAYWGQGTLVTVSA
VL: QIVLTQSPAIMSASPGEKVTMTCSASSSVSYMYWYQQKPGSSPRLLIYDTSNLASGVPVRFSGSGSGTSYSLTISRMEAEDAATFYCQQWSSSPLTFGAGTKLELK
B2: cDD9001 chimeric antibody (murine DD9 variable regions) (antibody, human IgG1, V domains shown)
VH: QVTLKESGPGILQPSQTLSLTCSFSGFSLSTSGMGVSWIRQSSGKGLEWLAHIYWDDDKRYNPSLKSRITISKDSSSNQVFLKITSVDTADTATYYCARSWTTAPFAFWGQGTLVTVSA
VL: QIVLTQSPAIMSASPGEKVTMTCSASSSVDYMYWYQQKPGSSPRLLIYDTSNLASGVPVRFSGSGSGTSYSLTISRMGAEDAATYYCQQWNSSPLTFGAGTKLELK
B3: cBB001 chimeric antibody (murine BB7 variable regions) (antibody, human IgG1, V domains shown)
VH: AVQLVESGGGLVKPGGSLKLSCAASGIIFSSSAMSWVRQTPEKRLEWVATISSGGRSTYYPDSVKGRFTVSRDSAKNTLYLQMDSLRSEDTAIYYCAKLISPYWGQGTTLTVSS
VL: AIKMTQSPSSMYASLGERVIITCKASQDINSYLTWFQQKPGKSPKTLIYLTNRLMDGVPSRFSGSGSGQEFLLTISGLEHEDMGIYYCLQYVDFPYTFGGGTKLEIK
notes: also called chimeric BB7
B4: AB1 murine monoclonal antibody (antibody, V domains shown)
VH: EVQLVESGGGLVKPGGSLKLSCAASGFTLSSSAMSWVRQTPDRRLEWVATISVGGGKTYYPDSVKGRFTISRDNAKNTLYLQMNSLRSEDTAMYYCAKLISLYWGQGTTLTVSS
VL: DIKMTQSPSSMYASLGERVTITCKASQDINSYLTWFQQKPGKSPKTLIYRTNRLFDGVPSRFSGSGSGQDFFLTISSLEYEDMGIYYCLQYDDFPYTFGGGTKLEIK
notes: Mouse hybridoma IgG; heavy chain amplified with constant region primer MHCG1, kappa light chain; also called mAB003
B5: DC1 murine monoclonal antibody (antibody, V domains shown)
VH: EVQLVESGGGLVKPGGSLKLSCAASGFTLSTHAMSWVRQTPEKRLEWVATISSGGRSTYYPDSVKGRFTISRDNVKNTLYLQLSSLRSEDTAVYFCARLISTYWGQGTTLTVSS
VL: DITMTQSPSSIYASLGERVTITCKASQDINSYLTWFQQKPGKSPKILIYLVNRLVDGVPSRFSGSGSGQDYALTISSLEYEDMGIYYCLQYDDFPYTFGGGTKLEIK
notes: Mouse hybridoma IgG; heavy chain amplified with primer MHCG1, kappa light chain; also called mDC001
B6: JE12 murine monoclonal antibody (antibody, V domains shown)
VH: EVQLQQSGPELVKPGASVKMSCKASGYRFTSYVMHWVKQKSGQGLEWIGYINPYNDGAKYNEKFKGKATLTSDKSSSTAYMELSSLTSEDSAVYYCARLSSDYWGQGTTLTVSS
VL: DVLMTQNPLSLPVSLGDQASISCRSSQSIEHINGNTYLEWYLQKPGQSPKFLIYKVSNRFSGVPDRFSGSGSGTDFTLRISRVEAEDLGIYYCFQGSHVPFTFGGGTKLEIK
notes: Mouse hybridoma IgG; heavy chain amplified with primer MHCG1, kappa light chain
B7: DD9 murine monoclonal antibody (antibody, V domains shown)
VH: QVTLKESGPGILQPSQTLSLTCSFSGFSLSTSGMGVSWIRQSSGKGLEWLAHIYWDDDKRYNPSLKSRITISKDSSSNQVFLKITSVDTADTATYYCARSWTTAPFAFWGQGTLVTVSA
VL: QIVLTQSPAIMSASPGEKVTMTCSASSSVDYMYWYQQKPGSSPRLLIYDTSNLASGVPVRFSGSGSGTSYSLTISRMGAEDAATYYCQQWNSSPLTFGAGTKLELK
notes: Mouse hybridoma IgG; heavy chain amplified with primer MHCG2A, kappa light chain; also called mDD9001
B8: BB7 murine monoclonal antibody (antibody, V domains shown)
VH: AVQLVESGGGLVKPGGSLKLSCAASGIIFSSSAMSWVRQTPEKRLEWVATISSGGRSTYYPDSVKGRFTVSRDSAKNTLYLQMDSLRSEDTAIYYCAKLISPYWGQGTTLTVSS
VL: AIKMTQSPSSMYASLGERVIITCKASQDINSYLTWFQQKPGKSPKTLIYLTNRLMDGVPSRFSGSGSGQEFLLTISGLEHEDMGIYYCLQYVDFPYTFGGGTKLEIK
notes: Mouse hybridoma IgG; heavy chain amplified with primer MHCG1, kappa light chain; also called mBB001
B9: EH6 murine monoclonal antibody (antibody, V domains shown)
VH: EVQLQQSGPELVKPGASVKMSCKASGYTFTSYVMHWVKQKPGQGLEWIGFINPYNDGTKYNEKFKGKATLTSDKASTTAYMELSSLTSEDSAVYYCARFSSGYWGQGTTLTVSS
VL: DVLMTQTPLSLPVSLGDQASISCRSSQSIVHSNGNTYLEWYLQKPGQSPKLLIYKVSNRFSGVPDRFSGSGSGTDFTLKISRVGAEDLGVYYCLQVSHVPFTFGSGTKLEIK
notes: Mouse hybridoma IgG; heavy chain amplified with primer MHCG2B, kappa light chain

The target in the first assay is T1, human transglutaminase type 2 (TG2). Description: SPR (Biacore T200), antibody captured on anti-human IgG1 Fc chip, TG2 injected; +Ca2+. The protocol:
Recombinant cynomolgus monkey TG2 was obtained from Trenzyme. Surface plasmon resonance (SPR) was measured on a Biacore T200 instrument (GE Healthcare). CM5 chips (GE Healthcare cat. no.: BR-1006-68) were coated with monoclonal mouse anti-human IgG1 (Fc) (MAH) antibody (GE Healthcare cat. no.: BR-1008-39) by amine-coupling as described in the manufacturers instructions. HBS-EP+ buffer (0.01 M HEPES, 0.15 M NaCl, 3 mM EDTA, 0.05% v/v Surfactant P20) and HBS-P+ buffer (0.01 M HEPES, 0.15 M NaCl, 0.05% Surfactant P20) were purchased from GE Healthcare as 10× stocks (cat. nos.: BR-1006-69 and BR-1006-71). Calcium Chloride solution was obtained from Sigma Aldrich (cat. no.:21115).
The method employed to determine the affinity of the anti-TG2 antibodies involved the capture of the chimeric or humanised antibodies on a MAH coated CM5 chip, followed by the injection of a series of TG2 samples in running buffer. The running buffer was 1×HBS-P+ containing 1 mM CaCl_2, or 1×HBS-EP+ for calcium-free experiments. Antibody capture was carried out for a contact time of 120 seconds at a flow rate of 10 μl/min resulting in the capture of approximately 40-80 RU. TG2 was injected over the immobilised antibody at concentrations ranging from 25 nM to 400 nM with a contact time up to 600 seconds at a flow rate of 30 μl/min. Dissociation of TG2 was typically measured for up to 5400 seconds (1.5 hours). Regeneration of the chip was then performed using 3 M MgCl_2, for a contact time of 60 seconds at a flow rate of […], followed by a 300 s stabilisation period before the next sample. For each of human and cynomolgus monkey TG2, at least 5 injections at a variety of concentrations were performed in at least two separate experiments.
Kinetic data were exported from the Biacore T200 Evaluation Software and analysed using GraphPad Prism, where the association phases and dissociation phases were analysed separately using a one phase association model and one-phase exponential decay model respectively. Association rates ($kon$) were calculated for each curve individually, and dissociation rates ($koff$) values from the long dissociation phase data collected. Where $koff$ values were calculated to be $<1\times10^-5$ s^-1, values were set at 1×10^-5 for analysis, as rates slower than this could not be estimated accurately.
(In general: In SPR one partner is held on a chip, and binding of the other changes the refractive index at the surface.)
B1: the affinity, expressed as Kd, was 0.64 nM; the koff came out at 1.8e-05 s⁻¹; the on-rate constant (kon) turned out to be 28000 M⁻¹ s⁻¹.

As for B2, the Kd turned out to be 0.43 nM, the koff was 1.3e-05 s⁻¹ and the kon turned out to be 30000 M⁻¹ s⁻¹. For B3, the Kd was less than 0.05 nM, the koff was less than 1e-05 s⁻¹ and the kon is 210000 M⁻¹ s⁻¹.

Another assay shares this target. Description: cell-based or functional assay.
In the case of B4, the “IC50, 3H-putrescine incorporation assay” value was 1.1e-05 mg/ml of IgG (to inhibit 1 ng of TG2). Take B5: the “IC50, 3H-putrescine incorporation assay” value is 1.1e-05 mg/ml IgG per ng of recombinant TG2. Turning to B6, the “IC50, 3H-putrescine incorporation assay” value was 0.000123 mg/ml of IgG (to inhibit 1 ng of TG2).

In a further assay the target is T2, rat TG2. Description: cell-based or functional assay.
With B7, the “IC50 of TG2 activity, 3H putrescine incorporation” value (“IC50 of TG2 activity” for short) came out at 0.000303 mg/ml IgG per ng TG2. Take B8: the “IC50 of TG2 activity” value turned out to be 0.00032 mg/ml IgG per ng TG2. As for B9, the “IC50 of TG2 activity” value came out at 0.000403 mg/ml IgG per ng TG2.
